According to US20170183404A1:

B1: XA8639 (VHH)
VHH: QVQLVESGGGLVRPGGSLRLSCVDSERTSYPMGWFRRAPGKEREFVASITWSGIDPTYADSVADRFTTSRDVANNTLYLQMNSLKHEDTAVYYCAARAPVGQSSSPYDYDYWGQGTQVTVSS
B2: XA8635 (VHH)
VHH: QVQLVESGGGLVQAGGSLRLSCAASGSISSISTMGWYRQAPGNERELVAAITSGGSTNYADSVKGRFTISRDNAKNTVYLQMNSLKPEDTAVYYCNFKYYSGSYFYKSEYDYWGQGTQVTVSS

Assays:
[1] = target: Purified Mor1 (Example 9) (Mus musculus (Mouse)) (UniProt P42866); assay: cell-based or functional assay
[2] = target: Purified Mor1 (Example 9) (Mus musculus (Mouse)) (UniProt P42866); assay: method not told at that place (Ki; presumably radioligand displacement)

Chain of Purified Mor1 (Example 9) (Mus musculus (Mouse)) (P42866 52-358, tags or fused parts left off): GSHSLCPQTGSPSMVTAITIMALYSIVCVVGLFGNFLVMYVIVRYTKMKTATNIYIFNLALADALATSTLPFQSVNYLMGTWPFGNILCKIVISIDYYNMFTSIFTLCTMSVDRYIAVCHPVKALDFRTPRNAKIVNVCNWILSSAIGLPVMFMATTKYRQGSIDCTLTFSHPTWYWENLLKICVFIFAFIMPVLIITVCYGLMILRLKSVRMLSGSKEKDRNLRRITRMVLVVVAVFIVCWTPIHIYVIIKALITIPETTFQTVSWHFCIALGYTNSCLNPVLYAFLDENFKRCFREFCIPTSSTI

Binder | enhancement of BU72 affinity for Mor1 in HDL particles [1] [fold] | inhibition constant (Ki) of agonist BU72 in [3H]-diprenorphine competition on Mor1 in HDL particles, in presence of 5 µM XA8639 [1] [nM] | Ki [2] [nM]
B1 | 176 | 0.0085 | –
B2 | – | – | 12
